Assay results reported in patent US20200197547A1 (INSERM INSTITUT NATIONAL DE LA SANT ET DE LA RECHERCHE M …, published 2020).

Columns and labels:
[1] = biological target: T1, Mesothelin (MSLN) on MSLN-positive HCC70 human triple negative breast cancer cells (human, UniProt Q13421 296-598); experiment: radioligand binding on cells in suspension, 40 nM 99mTc-A1, 1 h at 4 C, gamma counting
T1 construct: whole, on cells; also called MSLN-expressing HCC70 cells; MSLN-positive HCC70 cells
Method: (§1) HCC70 and MDA-MB-231 cells were rinsed with PBS, detached using EDTA 5 mM, and resuspended at 200,000 cells per tube. Cells were incubated for 1 hour with PBS-BSA 1% and then with 40 nM of ^99mTc-A1 or 150 nM of ^99mTc-C6 for 1 h at 4° C., in the absence or presence of a 200-fold excess of unlabeled A1 or C6. Cell suspensions were centrifuged at 400 g during 5 min at 4° C., and washed 5-times with cold-PBS. Cells were then transferred to new tubes and radioactivity was determined using a γ-counter (Wizard², Perkin).

[2] = biological target: T2, Human MSLN recombinant protein (R&D systems) (human, UniProt Q13421 296-580, limits assumed); experiment: saturation radioligand binding on plate-immobilized recombinant human MSLN, gamma counting, nonlinear fit
T2 construct: Bought protein, 100 ng immobilized on immunosorbent plates; also called recombinant MSLN; recombinant human mesothelin
Method: (§2) Human MSLN recombinant protein (100 ng, R&D systems) was immobilized on immunosorbent plates (Corning Costar Stripwell, Sigma Aldrich) overnight at 4° C., and blocked with 1% milk. Serial dilutions of ^99mTc-A1 and ^99mTc-C6 from 1 μM to 0.8 nM were incubated for 1 hour. Unbound activity was removed by 5 serial washes with PBS-Tween 0.1%. The radioactivity in each well was determined using a γ-counter (Wizard², Perkin Elmer). Unspecific binding was determined by incubation of ^99mTC-A1 or ^99mTc-C6 in empty wells. Results were corrected from background and decay, and the [^99mTc-A1] and [^99mTc-C6] binding curves were fitted using a nonlinear regression equation (specific binding: Y=B max*X/(KD+X) with X being the radioligand concentration) and using GraphPad Prism 6 software to determine KD values. Uptake was normalized to the Bmax for graphic representation of 3 independent experiments.

[3] = biological target: T2, Human MSLN recombinant protein (R&D …); experiment: saturation radioligand binding on plate-immobilized recombinant human MSLN
Method: as §2

[4] = biological target: T1, Mesothelin (MSLN) on MSLN-positive …; experiment: cell-based or functional assay
[5] = biological target: T2, Human MSLN recombinant protein (R&D …); experiment: saturation radioligand binding on recombinant human MSLN (as told in the discussion); value told in the discussion; recombinant human MSLN
Method: as §2

[6] = biological target: T1, Mesothelin (MSLN) on MSLN-positive …; experiment: competition on HCC70 cells, 200-fold excess of unlabeled A1 against 40 nM 99mTc-A1 (competitor: 99mTc-A1)
Method: as §1

T2 sequence (Q13421 other isoform, or with tags, fused parts or gaps limits assumed): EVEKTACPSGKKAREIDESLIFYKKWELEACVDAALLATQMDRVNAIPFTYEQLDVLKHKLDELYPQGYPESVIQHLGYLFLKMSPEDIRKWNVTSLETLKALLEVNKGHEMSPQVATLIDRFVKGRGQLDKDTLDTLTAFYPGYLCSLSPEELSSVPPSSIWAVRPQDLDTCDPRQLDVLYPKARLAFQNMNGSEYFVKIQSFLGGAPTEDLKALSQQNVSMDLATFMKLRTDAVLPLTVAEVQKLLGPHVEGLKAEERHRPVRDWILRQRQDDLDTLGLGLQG
T1 sequence (Q13421 other isoform, or with tags, fused parts or gaps limits assumed): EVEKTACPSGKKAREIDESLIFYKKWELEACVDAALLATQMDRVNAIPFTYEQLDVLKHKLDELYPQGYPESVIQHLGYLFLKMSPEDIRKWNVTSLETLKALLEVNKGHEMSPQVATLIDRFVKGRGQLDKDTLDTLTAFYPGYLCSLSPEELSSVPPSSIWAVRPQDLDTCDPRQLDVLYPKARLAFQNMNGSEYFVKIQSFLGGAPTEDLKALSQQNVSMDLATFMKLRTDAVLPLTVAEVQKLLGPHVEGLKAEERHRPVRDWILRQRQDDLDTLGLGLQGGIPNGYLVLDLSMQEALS

Binder | fold binding on HCC70 cells against MSLN-negative MDA-MB-231 cells [1] [fold] | Kd [2] [nM] | fold affinity against 99mTc-C6 [3] [fold] | 99mTc-A1 uptake in HCC70 tumors by SPECT quantification, with competition (150-fold excess of unlabeled A1) [4] [% ID/g] | fold decrease in 99mTc-A1 uptake in HCC70 tumors by SPECT quantification, co-injection of a 150-fold excess of unlabeled A1 [4] [fold] | fold decrease in 99mTc-A1 uptake in HCC70 tumors, ex vivo biodistribution, with excess of unlabeled A1 [4] [fold] | Kd [5] [nM] | fold decrease in 99mTc-A1 binding to HCC70 cells [6] [fold]
99mTc-A1 (anti-mesothelin A1 single domain antibody radiolabeled with technetium-99m at its C-terminal hexahistidine tag) (VHH, 99mTc-tricarbonyl at the C-terminal hexahistidine-tag (His-Tag), Labeled by the tricarbonyl method; also called radiolabeled A1 nanobody) VHH: QVQLVQSGGGLVHPGGSLRLSCAASGIDLSLYRMRWYRQAPGKERDLVALITDDGTSYYEDSVKGRFTITRDNPSNKVFLQMNSLKPEDTAVYYCNAETPLSPVNYWGQGTQVTVSH | 7.9 | 43.9 | > 2 | 0.6 | ~7 | ~7 | 35 | 
A1 anti-mesothelin single domain antibody, unlabeled (VHH, Same protein as in m1, without the radiolabel; also called unlabeled A1; A1 nanobody) VHH: QVQLVQSGGGLVHPGGSLRLSCAASGIDLSLYRMRWYRQAPGKERDLVALITDDGTSYYEDSVKGRFTITRDNPSNKVFLQMNSLKPEDTAVYYCNAETPLSPVNYWGQGTQVTVSH |  |  |  |  |  |  |  | 6
